Measurements reported in patent publication US20190040156A1 (Eli Lilly, published 2019).

How the values were obtained:
[1] = molecular target: T1, human FcγRIIb (CD32b) (human, UniProt P31994 43-217, limits assumed); assay: SPR, Biacore T200, antibody captured on protein A, FcγR as analyte, 37 °C, N=3
T1 construct: Soluble analyte in SPR
T1 sequence (looked up): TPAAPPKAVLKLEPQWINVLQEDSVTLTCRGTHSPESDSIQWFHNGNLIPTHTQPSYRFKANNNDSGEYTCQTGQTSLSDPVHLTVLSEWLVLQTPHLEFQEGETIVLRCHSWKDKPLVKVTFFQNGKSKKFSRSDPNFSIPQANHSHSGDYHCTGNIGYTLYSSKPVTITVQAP
Description: (§1) A CM5 chip (Biacore P/N BR-100-50) containing immobilized protein A (generated using standard NHS-EDC amine coupling) on all four flow cells is used to employ a capture methodology. IgG bispecific antibody samples are prepared by dilution of approximately 5 μg/mL into running buffer and approximately 300 RU is captured on the flow cells. Human FcγRI (produced from transient CHO cells and purified using IMAC and size exclusion chromatography) is prepared at final concentrations of 200.00, 100.00, 50.00, 25.00, 12.50, 6.25, 3.12, 1.56, and 0.78 nM by two-fold serial dilution into running buffer. Human FcγRIIa, FcγRIIb and FcγRIIIa (produced from transient CHO cells and purified using IMAC and size exclusion chromatography) are prepared at final concentrations of 10,000.0, 5,000, 2,500, 1,250, 625, 313, 157, 78, and 39 nM by two-fold serial dilution into running buffer.
(§2) Each analysis cycle consists of: (1) capturing antibody samples on flow cells; (2) injection of each human FcγRI, FcγRIIa, FcγRIIb and FcγRIIIa concentration over the flow cells at 40 μL/min for 60 seconds followed by return to buffer flow for 120 seconds to monitor dissociation phase; (3) regeneration of chip surfaces with injection of 10 mM glycine, pH 2.0. for 30 seconds at 50 μL/min over all flow cells; and (4) equilibration of chip surfaces with a 50 μL (60-sec) injection of HBS-EP+ running buffer. Data are processed using standard reference-subtracted method fit to a 1:1 binding model using Biacore T200 […] Evaluation software, version 1.0, to determine the equilibrium dissociation constant (KD) which is calculated from the relationship KD=koff/kₒₙ, and is in molar units.

[2] = molecular target: T2, human FcγRIIa (CD32a) (human, UniProt P12318 34-217, limits assumed); assay: as above
T2 construct: Soluble analyte in SPR
T2 sequence (looked up): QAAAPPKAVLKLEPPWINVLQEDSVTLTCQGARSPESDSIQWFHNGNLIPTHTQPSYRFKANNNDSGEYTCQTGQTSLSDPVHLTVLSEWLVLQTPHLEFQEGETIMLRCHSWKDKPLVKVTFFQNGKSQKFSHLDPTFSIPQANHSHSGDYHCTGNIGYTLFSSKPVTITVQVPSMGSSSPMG
Description: as §1, §2

[3] = molecular target: T3, human FcγRI (CD64) (human, UniProt P12314 16-288, limits assumed); assay: as above
T3 construct: Soluble analyte in SPR
T3 sequence (P12314 16-288 limits assumed): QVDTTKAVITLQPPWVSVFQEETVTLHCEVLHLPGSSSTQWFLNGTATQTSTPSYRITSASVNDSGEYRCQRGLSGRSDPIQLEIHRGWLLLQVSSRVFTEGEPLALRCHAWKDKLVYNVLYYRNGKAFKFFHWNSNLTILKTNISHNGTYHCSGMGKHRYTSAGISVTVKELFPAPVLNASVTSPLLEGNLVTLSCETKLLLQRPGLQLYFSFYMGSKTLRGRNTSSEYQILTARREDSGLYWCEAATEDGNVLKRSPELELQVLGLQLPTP
Description: as §1, §2

[4] = molecular target: T4, human FcγRIIIa (CD16a) (human, UniProt P08637 17-208); assay: as above
T4 construct: Soluble analyte in SPR
T4 sequence (P08637 17-208 limits assumed): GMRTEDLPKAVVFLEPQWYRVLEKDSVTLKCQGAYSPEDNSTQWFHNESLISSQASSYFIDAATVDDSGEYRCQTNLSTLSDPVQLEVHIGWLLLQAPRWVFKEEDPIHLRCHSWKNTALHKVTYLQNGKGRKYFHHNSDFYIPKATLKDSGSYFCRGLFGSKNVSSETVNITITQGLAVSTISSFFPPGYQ
Description: as §1, §2

[5] = molecular target: T5, human complement component C1q (human, UniProt P02745 23-245; P02746 28-253; P02747 29-245); assay: ELISA, antibody coated on the plate (10 to 0.19 µg/mL), human C1q at 10 µg/mL, anti-C1q-HRP detection
T5 construct: Bought protein; also called human C1q
T5 sequence (P02745 23-245 limits assumed, chain 1 of 3): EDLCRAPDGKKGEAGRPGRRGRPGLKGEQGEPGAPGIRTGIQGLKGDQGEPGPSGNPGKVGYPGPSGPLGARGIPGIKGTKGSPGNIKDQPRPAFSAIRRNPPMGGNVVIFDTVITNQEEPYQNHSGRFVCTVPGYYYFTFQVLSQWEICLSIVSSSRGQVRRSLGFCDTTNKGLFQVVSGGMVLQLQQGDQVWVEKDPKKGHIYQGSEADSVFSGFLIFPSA
T5 sequence (P02746 28-253 limits assumed, chain 2 of 3): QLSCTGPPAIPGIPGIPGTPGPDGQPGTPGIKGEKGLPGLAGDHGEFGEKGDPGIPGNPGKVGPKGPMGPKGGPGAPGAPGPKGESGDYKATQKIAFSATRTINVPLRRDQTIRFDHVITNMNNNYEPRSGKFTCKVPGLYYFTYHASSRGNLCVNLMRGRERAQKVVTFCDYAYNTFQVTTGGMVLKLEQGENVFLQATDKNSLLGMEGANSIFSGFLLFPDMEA
T5 sequence (P02747 29-245 limits assumed, chain 3 of 3): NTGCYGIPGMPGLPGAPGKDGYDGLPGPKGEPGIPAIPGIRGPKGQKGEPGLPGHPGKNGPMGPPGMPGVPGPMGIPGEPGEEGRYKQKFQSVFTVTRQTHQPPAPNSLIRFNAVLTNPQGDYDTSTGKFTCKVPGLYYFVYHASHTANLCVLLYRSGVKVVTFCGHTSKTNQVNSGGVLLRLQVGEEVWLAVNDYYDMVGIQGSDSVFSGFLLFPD
Description: Plates are incubated overnight at 4° C. with coating agent (to coat wells with antibody) followed with two hours of blocking (casein, 200 μL) at room temperature and then three washes with wash buffer (1×TBE with 0.05% Tween 20).
100 μL of human C1q (10 μg/mL) (MS Biomedical) in casein blocking reagent is added to each well and plates are incubated for 3 hours at room temperature. Following incubation plates are washed three times followed by addition of 100 μL/well (at 1:800 dilution) of Sheep anti-human C1q-HRP (Abcam #ab46191) in casein blocker. Plates are incubated for 1 hour at RT. Following incubation, plates are washed 6 times with wash buffer, and 100 μL/well of TMB Substrate (Pierce) is added to each well. Plates are incubated for 7 minutes followed by addition of 100 μL of 1.0N HC1 to each well to stop the reaction. Optical density is immediately measured using a colorimetric microplate reader set to 450 nm.

[6] = molecular target: T6, human IL-23 (human, UniProt Q9NPF7 20-189; P29460 23-328); assay: SPR, Biacore T200, antibody captured on protein A, antigen as analyte, 37 °C, 1:1 model, n=3
T6 construct: also called recombinant human IL-23; rhIL23
T6 sequence (looked up) 1: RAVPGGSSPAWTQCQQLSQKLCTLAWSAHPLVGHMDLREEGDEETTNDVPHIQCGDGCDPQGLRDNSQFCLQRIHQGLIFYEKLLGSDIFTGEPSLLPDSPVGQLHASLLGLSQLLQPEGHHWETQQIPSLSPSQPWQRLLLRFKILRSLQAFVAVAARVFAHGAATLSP
T6 sequence (looked up) 2: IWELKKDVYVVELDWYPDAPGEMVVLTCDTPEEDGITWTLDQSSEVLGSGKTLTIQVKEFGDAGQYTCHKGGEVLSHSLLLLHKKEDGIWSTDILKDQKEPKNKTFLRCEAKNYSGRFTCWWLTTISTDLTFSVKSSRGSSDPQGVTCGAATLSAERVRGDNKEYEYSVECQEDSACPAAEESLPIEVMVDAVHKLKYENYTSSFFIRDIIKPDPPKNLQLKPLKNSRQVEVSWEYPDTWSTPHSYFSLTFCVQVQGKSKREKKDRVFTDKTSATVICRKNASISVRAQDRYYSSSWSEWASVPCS
Description: (§3) A CM4 chip (Biacore P/N BR-100534) containing immobilized protein A (generated using standard NHS-EDC amine coupling) on all four flow cells is used to employ a capture methodology. IgG bispecific antibody samples are prepared by dilution of 5 μg/mL into running buffer and approximately 100-150 RU is captured on the flow cells. […] Human TNFα are prepared at final concentrations of 50.0, 25.0, 12.5, 6.25, 3.12, 1.56, 0.78, 0.39, 0.19 and 0 (blank) nM by dilution into running buffer.
(§4) Each analysis cycle consists of (1) capturing antibody samples on flow cells (Fc3); (2) injection of each human IL-23 concentration over the flow cells at 80 μL/min for 200 seconds followed by return to buffer flow for 900 seconds to monitor dissociation phase; (3) injection of each human TNFα concentration over the flow cells at 80 µL/min for 200 seconds followed by return to buffer flow for 900 seconds to monitor dissociation phase; (4) regeneration of chip surfaces with injection of 10 mM glycine, pH 2.0, for 30 seconds at 50 μL/min over all flow cells; and (5) equilibration of chip surfaces with a 50 μL (60-sec) injection of HBS-EP+ running buffer. Data are processed using standard reference-subtracted method fit to a 1:1 binding model using Biacore T200 Evaluation software, version 1.0, to determine the association rate (kₒₙ, M⁻¹s⁻¹ units), dissociation rate (koff, s⁻¹ units), and RUₘₐₓ (RU units). The equilibrium dissociation constant (KD) is calculated from the relationship KD=koff/kₒₙ, and is in molar units.

[7] = molecular target: T7, human TNFα (human, UniProt P01375 77-233); assay: as above
T7 construct: also called recombinant human TNFα; soluble human TNFα
T7 sequence (P01375 77-233 limits assumed): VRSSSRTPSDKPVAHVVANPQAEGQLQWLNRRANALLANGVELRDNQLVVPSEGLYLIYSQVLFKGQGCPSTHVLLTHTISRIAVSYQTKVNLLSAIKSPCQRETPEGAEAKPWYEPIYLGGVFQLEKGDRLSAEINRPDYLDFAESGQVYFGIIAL
Description: as §3, §4

[8] = molecular target: non-cleavable form of human membrane TNFα on CHO cells (human, UniProt P01375 1-233); assay: cell-based or functional assay
non-cleavable form of human membrane TNFα on CHO cells, sequence (P01375 whole entry): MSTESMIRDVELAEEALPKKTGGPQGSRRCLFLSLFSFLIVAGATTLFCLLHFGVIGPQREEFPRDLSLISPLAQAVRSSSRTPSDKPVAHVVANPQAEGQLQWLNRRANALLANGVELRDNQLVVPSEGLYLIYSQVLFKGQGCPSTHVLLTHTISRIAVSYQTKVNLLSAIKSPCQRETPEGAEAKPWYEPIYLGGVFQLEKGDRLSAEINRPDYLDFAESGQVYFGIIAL

[9] = molecular target: T6, human IL-23; assay: cell-based or functional assay
[10] = molecular target: T7, human TNFα; assay: cell-based or functional assay
[11] = molecular target: human FcγRIIIa (V158) on Jurkat NFAT-FF reporter cells (human, UniProt P08637 17-254); assay: cell-based or functional assay
human FcγRIIIa (V158) on Jurkat NFAT-FF reporter cells, sequence (P08637 17-254 F176V limits assumed): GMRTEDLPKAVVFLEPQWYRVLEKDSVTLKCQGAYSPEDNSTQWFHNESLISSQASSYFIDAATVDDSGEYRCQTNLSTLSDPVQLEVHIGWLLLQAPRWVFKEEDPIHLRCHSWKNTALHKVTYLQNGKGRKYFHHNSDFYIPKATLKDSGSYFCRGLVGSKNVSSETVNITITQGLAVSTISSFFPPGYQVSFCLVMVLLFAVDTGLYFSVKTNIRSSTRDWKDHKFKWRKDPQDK

Kd [1]: 4000 nM
Kd [2]: 720 nM
Kd [3]: 0.0648 nM
Kd [4]: 260 nM
binding result [5]: binds
Kd [6]: 0.245 nM
koff [6]: 0.000101 s⁻¹
kon [6]: 412000 M⁻¹ s⁻¹
Kd [7]: 0.0496 nM
koff [7]: 0.000155 s⁻¹
kon [7]: 3.1e+06 M⁻¹ s⁻¹
relative EC50, human complement-mediated effector function (CDC) on CHO cells carrying non-cleavable human membrane TNFα (T74E construct as internal standard = 1) [8]: 0.74 relative to internal standard
IC50, inhibition of IL-23-induced Stat 3 phosphorylation (luciferase) in Kit225 cells [9]: 0.066 pM
Relative EC50, induction of FcγRIIIa-mediated effector function (NFAT luciferase in Jurkat cells with CHO cells carrying non-cleavable human membrane TNFα; T74E construct as internal standard = 1) [11]: 0.75 relative to internal standard
B1: exemplified IgG bispecific antibody (anti-TNFα / anti-IL23p19) (bispecific antibody)
heavy 1: not shown
light 1: not shown
heavy 2: QVQLVQSGAEVKKPGSSVKVSCKASGYPFTRYVMHWVRKAPGQGLEWMGYINPYNDGVNYNEEFKGRVTITADTSTSTAYMELSSLRSEDTAVYYCARNWDTGLWGQGTTVTVSSASTKGPSVFPLAPSSKSTSGGTAALGCLVKDYFPEPVTVSWNSGALTSGVATGPAVLQSSGLYSLSSVVTVPSSSLGTQTYICNVNHKPSNTKVDKKVEPKSCDKTHTCPPCPAPELLGGPSVFLFPPKPKDTLMISRTPEVTCVVVDVSHEDPEVKFNWYVDGVEVHNAKTKPREEQYNSTYRVVSVLTVLHQDWLNGKEYKCKVSNKALPAPIEKTISKAKGQPREPQVSTLPPSREEMTKNQVSLMCLVYGFYPSDIAVEWESNGQPENNYKTTPPVLDSDGSFFLYSVLTVDKSRWQQGNVFSCSVMHEALHNHYTQKSLSLSPG
light 2: RIQMTQSPSSLSASVGDRVTITCKASDHIGKFLTWYQDKPGKAPKLLIYGATSKLTGVPSRFSGSGSGTDFTLTISSLQPEDFATYYCQQYWSTPFTFGGGTKVEIKGQPKAAPSVTLFPPSSEELQANKATLVCYISDFYPGAVTVAWKADSSPVKAGVETTTPSKQSNNKYAAWSYLSLTPEQWKSHRSYSCQVTHEGSTVEKTVAPTEC
modifications: N-terminal glutamine (residue 1) may be converted to pyroglutamic acid; C-terminal lysine (residue 445) may be truncated post-translationally; C-terminal lysine (residue 451) may be truncated post-translationally
notes: Heterodimeric IgG1 of four different chains; also called exemplified bispecific antibody; IgG bispecific antibody of the present invention
IC50, inhibition of killing of L929 cells by CHO cells carrying non-cleavable membrane bound human TNFα (MTT) [8]: 3.99 nM
IC50, inhibition of soluble human TNFα-induced killing of L929 cells (MTT) [10]: 0.32 nM
